Data published in US20240401063, “Aptamer for DKK1 and Use Thereof” (APTACURE THERAPEUTICS LIMITED, published 2024).

Experiments:
[1] = target: T1, DKK1 (Dickkopf-1), full-length (Homo sapiens, UniProt O94907 SEQ:32-266); assay: ELONA; room temperature; conditions: tags: His6; label: biotin; G-rich, predicted G4
T1 sequence: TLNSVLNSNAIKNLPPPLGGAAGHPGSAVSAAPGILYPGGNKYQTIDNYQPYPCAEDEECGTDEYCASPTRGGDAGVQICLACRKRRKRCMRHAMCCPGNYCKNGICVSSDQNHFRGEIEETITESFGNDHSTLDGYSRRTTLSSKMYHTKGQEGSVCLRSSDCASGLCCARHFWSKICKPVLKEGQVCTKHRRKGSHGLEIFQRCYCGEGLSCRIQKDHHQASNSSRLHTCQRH
Method: (§1) Enzyme linked oligonucleotide assay (ELONA): 160 ng DKK1 per well and negative target were coated in a 96-well microtiter plate by incubating at 4° C. overnight through hydrophobic interaction. Non-binding sites in wells were blocked with bull serum albumin (BSA) at room temperature for 1 hour, and then washed with DNA-binding buffer 4 times for 5 minutes each. The biotinylated aptamer candidates/RS with an appropriate concentration were added to each well and incubated at room temperature for 45 minutes with continuous gentle shaking. After binding, the plate was washed with washing buffer 4 times for 5 minutes each to remove non-specific and weakly binding sequences. 100 μl streptavidin-horseradish peroxidase (HRP) (1:10000 dilute into PBST+0.1% BSA) was added to each well, and incubated for 30 minutes, and washed for 4 times with the binding buffer. 50 μl 3,3′,5,5′-tetramethylbenzidine (TMB) as a HRP substrate was added to each well and incubated for 20 minutes. 50 μl 2M H₂SO₄ was added to terminate the reaction. The absorbance at 450 nm was measured with a microplate reader (Molecular Device i3x). Data was analyzed with Origin software. A binding curve was generated and KD was calculated with a non-linear curve fitting model logistic.
Aptamer candidates with significant specificity and Candidate 3 as a negative control were used to determine the binding affinity against DKK1. Candidates 1, 2, 4, and 14 had concentrations of (0, 62.5 nM, 125 nM, 250 nM, 500 nM, 1000 nM, 2000 nM, and 4000 nM), Candidates 7, 10, 15, and 16 had concentrations of (0, 23.44 nM, 46.86 nM, 93.75 nM, 187.5 nM, 375 nM, 750 nM, and 1500 nM), and other candidates had concentrations of (0, 0.18 nM, 0.74 nM, 2.96 nM, 11.84 nM, 47.35 nM, 189.39 nM, and 757.58 nM). […] Six candidates (aptdkk-5, 13, 20, 19, 6, and 1) were rich in G. The other five sequences (aptdkk-9, 18, 12, 17, and 8) were not rich in G.

[2] = target: T2, DKK1 expressed in Wnt reporter cells (UniProt O94907 SEQ:32-266); assay: cell_activity; TOPFlash Wnt3a luciferase in HEK293T; conditions: tags: DKK1 construct co-transfected in HEK293T
T2 sequence: T1 sequence
Method: TCF-wnt induced luciferase activity assay: HEK293T cells were co-transfected with corresponding plasmids, including TOPFlash, FOPFlash, Wnt3a, and DKK1 constructs. An equal amount of the carrier was used for each time of transfection. The culture medium was replaced 24 hours after the transfection. The cells were treated with conditional culture medium containing 1 μM corresponding aptamer candidates. In order to determine inhibition effect, the cells are treated with aptamer candidates having gradient concentrations. 24 hours after treatment, the cells were lysed with 100 μl of lysis buffer, and 20 μl was taken for analysis. It was calculated according to the protocol (dual luciferase reporter gene assay, Promega).

[3] = target: T1, DKK1 (Dickkopf-1), full-length; assay: ELONA; high affinity; Kd only in FIG. 9; conditions: tags: His6; label: biotin
Method: as §1
Aptamer candidates with significant specificity (apt5-1-44, apt5-1-41, apt5-1-38, and apt5-1-35) and the original aptdkk5 as a positive control were used to determine the binding affinity against DKK1. The original aptdkk5 and apt5-1-44 had concentrations of (0.15625 nM, 0.625 nM, 1.25 nM, 2.5 nM, 5 nM, 10 nM, 50 nM, and 100 nM), apt5-1-41, apt5-1-38, and apt5-1-35 had concentrations of (0, 1.5625 nM, 3.125 nM, 6.25 nM, 12.5 nM, 25 nM, and 50 nM).

[4] = target: T1, DKK1 (Dickkopf-1), full-length; assay: ELONA; 1 nM: no or slight difference from aptdkk5; conditions: tags: His6; label: biotin
Method: as §1
The specificity of 100 nM/i nM of each aptamer/RS against DKK-1 was determined for 24 truncated sequences of aptdkk5 and original aptdkk5 (Table 6) by ELONA and the absorbance at 450 nm was detected. When the concentration was 100 nM, there was no significant difference or slight difference in the absorbance between apt5-1-38, apt5-1-35, apt5-1-62, or apt5-1-59 and the original aptdkk5 (FIG. 8a). When the concentration was 1 nM, there was no significant difference or slight difference in the absorbance between apt5-1-50, apt5-1-47, apt5-1-44, apt5-1-41, apt5-1-38, apt5-1-35, apt5-1-65, apt5-1-62, apt5-1-59, or apt5-1-53 and the original aptdkk5 (FIG. 8b). After the specificity and length of these aptamers were considered, apt5-1-44, apt5-1-41, apt5-1-38, and apt5-1-35 were selected to determine the binding affinity against DKK1.

[5] = target: T1, DKK1 (Dickkopf-1), full-length; assay: ELONA; not significantly above blank at 1 uM; used as negative control; conditions: tags: His6; label: biotin
Method: as §1, with “50 μl 2M H₂SO₄ was added to terminate the reaction.” left out
The specificity of 1 μM of each adapter/RS against DKK-1 was determined for 20 potential sequences with the highest occurrence rate (Table 4) by ELONA and the absorbance at 450 nm was detected.

[6] = target: T1, DKK1 (Dickkopf-1), full-length; assay: ELONA; 100 nM and 1 nM: no or slight difference from aptdkk5; conditions: tags: His6; label: biotin
Method: as §1, with “100 μl streptavidin-horseradish peroxidase (HRP) (1:10000 dilute into PBST+0.1% BSA) was added to each well, and incubated for 30 minutes, and washed for 4 times with the binding buffer. 50 μl 3,3′,5,5′-tetramethylbenzidine (TMB) as a HRP substrate was added to each well and incubated for 20 minutes. 50 μl 2M H₂SO₄ was added to terminate the reaction.” left out
The specificity of 100 nM/i nM of each aptamer/RS against DKK-1 was determined for 24 truncated sequences of aptdkk5 and original aptdkk5 (Table 6) by ELONA and the absorbance at 450 nm was detected. When the concentration was 100 nM, there was no significant difference or slight difference in the absorbance between apt5-1-38, apt5-1-35, apt5-1-62, or apt5-1-59 and the original aptdkk5 (FIG. 8a). […]

[7] = target: T1, DKK1 (Dickkopf-1), full-length; assay: ELONA; highest affinity of the four truncations; Kd only in FIG. 9; conditions: tags: His6; label: biotin
Method: as §1, with “logistic. […]” for “logistic.”

[8] = label: biotin, G-rich, predicted G4

B1: Aptdkk-5 (ssDNA)
DNA: CGTACGGTCGACGCTAGCTGGTGGTTGGGGTGGGTGGTGGTTGTTCGTGGCCGGGATCCGAGCTCCACGTG
B1 was tested, and the Kd [1] was 0.3 nM and the IC50 [2, 8] was 754 nM.

B2: Apt5-1-41 (ssDNA)
DNA: CGTACGGTCGACGCTAGCTGGTGGTTGGGGTGGGTGGTGGT
B2: binds [3].

B3: Apt5-1-65 (ssDNA)
DNA: CGTACGGTCGACGCTAGCTGGTGGTTGGGGTGGGTGGTGGTTGTTCGTGGCCGCGTACGGTCGAC
B3: binds [4].

B4: Apt5-1-35 (ssDNA)
DNA: CGTACGGTCGACGCTAGCTGGTGGTTGGGGTGGGT
B4: binds [3].

B5: Apt5-1-44 (ssDNA)
DNA: CGTACGGTCGACGCTAGCTGGTGGTTGGGGTGGGTGGTGGTTGT
B5: binds [3].

B6: Apt5-1-53 (ssDNA)
DNA: CGTACGGTCGACGCTAGCTGGTGGTTGGGGTGGGTGGTGGTTGTTCGTGGCCG
B6: binds [4].

B7: Aptdkk-3 (ssDNA)
DNA: CGTACGGTCGACGCTAGCTAACTGTCCGACGCGTCTTTCACTTTCTCCCGCCGGGATCCGAGCTCCACGTG
B7: no binding [5].

B8: Apt5-1-62 (ssDNA)
DNA: CGTACGGTCGACGCTAGCTGGTGGTTGGGGTGGGTGGTGGTTGTTCGTGGCCGCGTACGGTC
B8: binds [6].

B9: Aptdkk-20 (ssDNA)
DNA: CGTACGGTCGACGCTAGCCGTAGGGAGGTGGGTGGGTATTTCTCTCTGTCGTGGGATCCGAGCTCCACGTG
Binder B9 has a Kd [1] of 6.6 nM and an IC50 [2, 8] of 1500 nM.

B10: Apt5-1-59 (ssDNA)
DNA: CGTACGGTCGACGCTAGCTGGTGGTTGGGGTGGGTGGTGGTTGTTCGTGGCCGCGTACG
B10: binds [6].

B11: Apt5-1-38 (Aptdkk5s) (ssDNA)
DNA: CGTACGGTCGACGCTAGCTGGTGGTTGGGGTGGGTGGT
B11: binds [7].

B12: dkk5s-OM-indT (ssDNA)
DNA: B11 DNA
modifications: O-methyl (positions not stated); 3' inverted dT
For B12, the IC50 [2] was 383 nM.
